Data reported in PMC7367873, “Dissecting the sequence determinants for dephosphorylation by the catalytic subunits of phosphatases PP1 and PP2A” (Nature Communications, 2020).

B1: SORBS2 (protein, UniProt O94875 1-1100, looked up)
Sorbin and SH3 …: MSYYQRPFSPSAYSLPASLNSSIVMQHGTSLDSTDTYPQHAQSLDGTTSSSIPLYRSSEEEKRVTVIKAPHYPGIGPVDESGIPTAIRTTVDRPKDWYKTMFKQIHMVHKPDDDTDMYNTPYTYNAGLYNPPYSAQSHPAAKTQTYRPLSKSHSDNSPNAFKDASSPVPPPHVPPPVPPLRPRDRSSTEKHDWDPPDRKVDTRKFRSEPRSIFEYEPGKSSILQHERPASLYQSSIDRSLERPMSSASMASDFRKRRKSEPAVGPPRGLGDQSASRTSPGRVDLPGSSTTLTKSFTSSSPSSPSRAKGGDDSKICPSLCSYSGLNGNPSSELDYCSTYRQHLDVPRDSPRAISFKNGWQMARQNAEIWSSTEETVSPKIKSRSCDDLLNDDCDSFPDPKVKSESMGSLLCEEDSKESCPMAWGSPYVPEVRSNGRSRIRHRSARNAPGFLKMYKKMHRINRKDLMNSEVICSVKSRILQYESEQQHKDLLRAWSQCSTEEVPRDMVPTRISEFEKLIQKSKSMPNLGDDMLSPVTLEPPQNGLCPKRRFSIEYLLEEENQSGPPARGRRGCQSNALVPIHIEVTSDEQPRAHVEFSDSDQDGVVSDHSDYIHLEGSSFCSESDFDHFSFTSSESFYGSSHHHHHHHHHHHRHLISSCKGRCPASYTRFTTMLKHERARHENTEEPRRQEMDPGLSKLAFLVSPVPFRRKKNSAPKKQTEKAKCKASVFEALDSALKDICDQIKAEKKRGSLPDNSILHRLISELLPDVPERNSSLRALRRSPLHQPLHPLPPDGAIHCPPYQNDCGRMPRSASFQDVDTANSSCHHQDRGGALQDRESPRSYSSTLTDMGRSAPRERRGTPEKEKLPAKAVYDFKAQTSKELSFKKGDTVYILRKIDQNWYEGEHHGRVGIFPISYVEKLTPPEKAQPARPPPPAQPGEIGEAIAKYNFNADTNVELSLRKGDRVILLKRVDQNWYEGKIPGTNRQGIFPVSYVEVVKKNTKGAEDYPDPPIPHSYSSDRIHSLSSNKPQRPVFTHENIQGGGEPFQALYNYTPRNEDELELRESDVIDVMEKCDDGWFVGTSRRTKFFGTFPGNYVKRL
B2: CYFIP1 (protein, UniProt Q7L576 1-1253, looked up)
Cytoplasmic FMR1-interacting …: MAAQVTLEDALSNVDLLEELPLPDQQPCIEPPPSSLLYQPNFNTNFEDRNAFVTGIARYIEQATVHSSMNEMLEEGQEYAVMLYTWRSCSRAIPQVKCNEQPNRVEIYEKTVEVLEPEVTKLMNFMYFQRNAIERFCGEVRRLCHAERRKDFVSEAYLITLGKFINMFAVLDELKNMKCSVKNDHSAYKRAAQFLRKMADPQSIQESQNLSMFLANHNKITQSLQQQLEVISGYEELLADIVNLCVDYYENRMYLTPSEKHMLLKVMGFGLYLMDGSVSNIYKLDAKKRINLSKIDKYFKQLQVVPLFGDMQIELARYIKTSAHYEENKSRWTCTSSGSSPQYNICEQMIQIREDHMRFISELARYSNSEVVTGSGRQEAQKTDAEYRKLFDLALQGLQLLSQWSAHVMEVYSWKLVHPTDKYSNKDCPDSAEEYERATRYNYTSEEKFALVEVIAMIKGLQVLMGRMESVFNHAIRHTVYAALQDFSQVTLREPLRQAIKKKKNVIQSVLQAIRKTVCDWETGHEPFNDPALRGEKDPKSGFDIKVPRRAVGPSSTQLYMVRTMLESLIADKSGSKKTLRSSLEGPTILDIEKFHRESFFYTHLINFSETLQQCCDLSQLWFREFFLELTMGRRIQFPIEMSMPWILTDHILETKEASMMEYVLYSLDLYNDSAHYALTRFNKQFLYDEIEAEVNLCFDQFVYKLADQIFAYYKVMAGSLLLDKRLRSECKNQGATIHLPPSNRYETLLKQRHVQLLGRSIDLNRLITQRVSAAMYKSLELAIGRFESEDLTSIVELDGLLEINRMTHKLLSRYLTLDGFDAMFREANHNVSAPYGRITLHVFWELNYDFLPNYCYNGSTNRFVRTVLPFSQEFQRDKQPNAQPQYLHGSKALNLAYSSIYGSYRNFVGPPHFQVICRLLGYQGIAVVMEELLKVVKSLLQGTILQYVKTLMEVMPKICRLPRHEYGSPGILEFFHHQLKDIVEYAELKTVCFQNLREVGNAILFCLLIEQSLSLEEVCDLLHAAPFQNILPRVHVKEGERLDAKMKRLESKYAPLHLVPLIERLGTPQQIAIAREGDLLTKERLCCGLSMFEVILTRIRSFLDDPIWRGPLPSNGVMHVDECVEFHRLWSAMQFVYCIPVGTHEFTVEQCFGDGLHWAGCMIIVLLGQQRRFAVLDFCYHLLKVQKHDGKDEIIKNVPLKKMVERIRKFQILNDEIITILDKYLKSGDGEGTPVEHVRCFQPPIHQSLASS
B3: HDAC4 (protein, UniProt P56524 1-1084, looked up)
Histone deacetylase 4: MSSQSHPDGLSGRDQPVELLNPARVNHMPSTVDVATALPLQVAPSAVPMDLRLDHQFSLPVAEPALREQQLQQELLALKQKQQIQRQILIAEFQRQHEQLSRQHEAQLHEHIKQQQEMLAMKHQQELLEHQRKLERHRQEQELEKQHREQKLQQLKNKEKGKESAVASTEVKMKLQEFVLNKKKALAHRNLNHCISSDPRYWYGKTQHSSLDQSSPPQSGVSTSYNHPVLGMYDAKDDFPLRKTASEPNLKLRSRLKQKVAERRSSPLLRRKDGPVVTALKKRPLDVTDSACSSAPGSGPSSPNNSSGSVSAENGIAPAVPSIPAETSLAHRLVAREGSAAPLPLYTSPSLPNITLGLPATGPSAGTAGQQDAERLTLPALQQRLSLFPGTHLTPYLSTSPLERDGGAAHSPLLQHMVLLEQPPAQAPLVTGLGALPLHAQSLVGADRVSPSIHKLRQHRPLGRTQSAPLPQNAQALQHLVIQQQHQQFLEKHKQQFQQQQLQMNKIIPKPSEPARQPESHPEETEEELREHQALLDEPYLDRLPGQKEAHAQAGVQVKQEPIESDEEEAEPPREVEPGQRQPSEQELLFRQQALLLEQQRIHQLRNYQASMEAAGIPVSFGGHRPLSRAQSSPASATFPVSVQEPPTKPRFTTGLVYDTLMLKHQCTCGSSSSHPEHAGRIQSIWSRLQETGLRGKCECIRGRKATLEELQTVHSEAHTLLYGTNPLNRQKLDSKKLLGSLASVFVRLPCGGVGVDSDTIWNEVHSAGAARLAVGCVVELVFKVATGELKNGFAVVRPPGHHAEESTPMGFCYFNSVAVAAKLLQQRLSVSKILIVDWDVHHGNGTQQAFYSDPSVLYMSLHRYDDGNFFPGSGAPDEVGTGPGVGFNVNMAFTGGLDPPMGDAEYLAAFRTVVMPIASEFAPDVVLVSSGFDAVEGHPTPLGGYNLSARCFGYLTKQLMGLAGGRIVLALEGGHDLTAICDASEACVSALLGNELDPLPEKVLQQRPNANAVRSMEKVMEIHSKYWRCLQRTTSTAGRSLIEAQTCENEEAETVTAMASLSVGVKPAEKRPDEEPMEEEPPL
B4: DDX1 (protein, UniProt Q92499 1-740, looked up)
ATP-dependent RNA helicase …: MAAFSEMGVMPEIAQAVEEMDWLLPTDIQAESIPLILGGGDVLMAAETGSGKTGAFSIPVIQIVYETLKDQQEGKKGKTTIKTGASVLNKWQMNPYDRGSAFAIGSDGLCCQSREVKEWHGCRATKGLMKGKHYYEVSCHDQGLCRVGWSTMQASLDLGTDKFGFGFGGTGKKSHNKQFDNYGEEFTMHDTIGCYLDIDKGHVKFSKNGKDLGLAFEIPPHMKNQALFPACVLKNAELKFNFGEEEFKFPPKDGFVALSKAPDGYIVKSQHSGNAQVTQTKFLPNAPKALIVEPSRELAEQTLNNIKQFKKYIDNPKLRELLIIGGVAARDQLSVLENGVDIVVGTPGRLDDLVSTGKLNLSQVRFLVLDEADGLLSQGYSDFINRMHNQIPQVTSDGKRLQVIVCSATLHSFDVKKLSEKIMHFPTWVDLKGEDSVPDTVHHVVVPVNPKTDRLWERLGKSHIRTDDVHAKDNTRPGANSPEMWSEAIKILKGEYAVRAIKEHKMDQAIIFCRTKIDCDNLEQYFIQQGGGPDKKGHQFSCVCLHGDRKPHERKQNLERFKKGDVRFLICTDVAARGIDIHGVPYVINVTLPDEKQNYVHRIGRVGRAERMGLAISLVATEKEKVWYHVCSSRGKGCYNTRLKEDGGCTIWYNEMQLLSEIEEHLNCTISQVEPDIKVPVDEFDGKVTYGQKRAAGGGSYKGHVDILAPTVQELAALEKEAQTSFLHLGYLPNQLFRTF

Assays:
GFP-14-3-3β = GFP-14-3-3β co-IP with LC-MS/MS, untreated GFP-14-3-3β versus GFP control (14-3-3 interactome); format: binding, human; details: 3 replicates each
[1] = system: GFP-14-3-3β and its binding proteins; test: GFP-14-3-3β co-IP with LC-MS/MS label-free quantification, untreated versus PP1c-treated; set-up: species or system human; details: pairwise comparison PP1 vs untreated, 3 replicates each
[2] = pairwise comparison untreated GFP-14-3-3β vs GFP, student's t-test, LC-MS/MS label-free quantification
[3] = student's t-test, LC-MS/MS label-free quantification

Molecule | Difference (log2), untreated vs GFP (GFP-14-3-3β; [2]) | Difference (log2), PP1 vs untreated [1, 3] | Difference (log2), untreated vs GFP (GFP-14-3-3β; log2 difference, pairwise comparison untreated vs GFP, label-free quantification) | Difference (log2), PP1 vs untreated ([1]; log2 difference, label-free quantification)
B1 | 3.7091 log2 | -2.05 log2 |  | 
B2 | 3.924 log2 | -2.17 log2 |  | 
B3 | 7.6192 log2 | -2.1937 log2 |  | 
B4 |  |  | -0.009417 | 1.563
